Experimental data taken from PMC8626312, “In vitro assembly complex formation of TRAIP CC and RAP 80 zinc finger motif revealed by our study” (Saudi Journal of Biological Sciences, 2021).

B1: TRAIP CC (66–164 aa) (domain or fragment, human, UniProt Q9BWF2 66-164, looked up)
chain: LAQEEENVLDAEFLKNELDNVRAQLSQKDKEKRDSQVIIDTLRDTLEERNATVVSLQQALGKAEMLCSTLKKQMKYLEQQQDETKQAQEEARRLRSKMK
notes: The abstract prints 64–166 for this construct; Calculated mass with the C-terminal His tag is 12325 Da; also called TRAIP coiled-coil domain; TRAIP-1; source: E. coli BL21 (DE3), purified (Ni-NTA, SEC); not shown: His6, C-terminal, kept

Experiments:
[1] = target: the molecule itself; experiment: SEC-MALS; TRAIP CC alone on a size exclusion column HR 10/30, 20 mM Tris-HCl pH 8, 150 mM NaCl; three-angle light scattering and refractive index detectors (Wyatt mini-DAWN TREOS), ASTRA
[2] = target: the molecule itself; experiment: SEC; each protein alone on Superdex 200 HR 10/30, 20 mM Tris-HCl pH 8.0, 150 mM NaCl; oligomeric state from the elution volume
TRAIP CC (66–164 aa) = target: B1; experiment: SEC; purified proteins mixed in a molar ratio of approximately 1:1, pre-incubated 30 min at 4 °C, Superdex 200 HR 10/30, 20 mM Tris-HCl pH 8.0, 150 mM NaCl; fractions on SDS-PAGE; settings: both partners purified

B1
stoichiometry N [1]: 3

B2: RAP80 zinc finger (490–584 aa) (domain or fragment, human, UniProt Q96RL1 490-584, looked up)
chain: KEVAISTFSSSNQVSCPLCDQCFPPTKIERHAMYCNGLMEEDTVLTRRQKEAKTKSDSGTAAQTSLDIDKNEKCYLCKSLVPFREYQCHVDSCLQ
notes: RAP80 (receptor-associated protein 80), human, 719 aa, zinc finger motif, residues 490(K)-584(Q), 95 aa; the methods name pET24a with a C-terminal His6; also called RAP80 Zn finger motif; RAP80-1; source: E. coli BL21 (DE3), purified (Ni-NTA, SEC)
stoichiometry N [2]: 3 | binding result (TRAIP CC (66–164 aa)): binds

B3: TRAIP RINGCC (1-157aa) (domain or fragment, human, UniProt Q9BWF2 1-157, looked up)
chain: MPIRALCTICSDFFDHSRDVAAIHCGHTFHLQCLIQWFETAPSRTCPQCRIQVGKRTIINKLFFDLAQEEENVLDAEFLKNELDNVRAQLSQKDKEKRDSQVIIDTLRDTLEERNATVVSLQQALGKAEMLCSTLKKQMKYLEQQQDETKQAQEEAR
notes: the methods name pET24a with a C-terminal His6; One sentence of the results prints 1–517; also called TRAIP-5; TRAIP RINGCC (1–517); source: E. coli BL21 (DE3), purified (Ni-NTA, SEC)
binding result [2]: binds
